Literature values in PMC4853784.

Molecular target: V1b receptor (Homo sapiens) (UniProt P47901)
Test: radioligand

Sequence of UniProt P47901 (P47901 whole entry): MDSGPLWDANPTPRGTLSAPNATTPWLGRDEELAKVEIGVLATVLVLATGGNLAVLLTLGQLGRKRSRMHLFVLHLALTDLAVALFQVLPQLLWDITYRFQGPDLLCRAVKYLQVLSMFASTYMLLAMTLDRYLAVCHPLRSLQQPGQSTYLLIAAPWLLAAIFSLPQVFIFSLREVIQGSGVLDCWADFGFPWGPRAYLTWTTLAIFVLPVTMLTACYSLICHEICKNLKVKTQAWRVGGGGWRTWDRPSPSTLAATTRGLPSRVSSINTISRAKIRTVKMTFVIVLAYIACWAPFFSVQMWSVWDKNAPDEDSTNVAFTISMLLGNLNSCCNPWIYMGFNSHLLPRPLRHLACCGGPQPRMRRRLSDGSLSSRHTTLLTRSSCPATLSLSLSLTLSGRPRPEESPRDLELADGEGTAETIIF

Kd: 1.8 nM
Substance: vasopressin (from UniProt P01185)
